Test [1] addresses SARS-CoV-2 spike N-terminal domain (NTD), recombinant (SARS-CoV-2, UniProt P0DTC2 14-305). Put plainly: bead flow cytometry, AUC minus CD4. (A flow cytometer gives signals particle by particle.)
In test [2] the target is SARS-CoV-2 spike receptor binding domain (RBD), recombinant (SARS-CoV-2, UniProt P0DTC2 319-541). Put plainly: bead flow cytometry, AUC minus CD4.

Substitutions are numbered along the chain they refer to.

B1: COV44-62 (antibody, V domains shown)
VH: QMQLMQSGAEVKKPGASVTVSCKASGDTFSDYRIHWVRQAPGQGLEWMGRMNPKSGDTNFAQKFQGRVTMTRDMSINTAYMTLSGLTFDDTALYYCASLLIVGGFDPLDDFEVWGQGTMVTISS
VL: QSALTQPPSASGSPGQSVTISCSGTSSDVGGYNFVSWYQHHPGKAPKILIYEVTKRPSGVPDRFSGSKSGNTASLTVSGLQAEDEADYYCSSYGGTNNLLFGGGTKLTVL
Take B1: the binding result in test [1] is recorded as “no binding (tested: 200 µg/mL)”.

B2: COV30-80 (antibody, V domains shown)
VH: QVQLVESGGGVVQPGRSLRLSCAASGFTFSSYAMHWVRQAPGKGLEWVAVISYDGNNAFYADSVKGRFTISRDNSKNTVYVQMDSLRAEETAVYYCARAGYNSNWDLGDALDIWGQGTMVTVSS
VL: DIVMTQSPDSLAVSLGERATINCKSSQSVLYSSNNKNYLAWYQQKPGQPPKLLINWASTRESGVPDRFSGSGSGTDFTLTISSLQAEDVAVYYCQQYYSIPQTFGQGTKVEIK
On to B2, for which the binding result in test [1] and in test [2] was “no binding (tested: 200 µg/mL)” throughout.

B3: COV57-03 (antibody, V domains shown)
VH: QVHLVESGGGVVQPGRSLRLSCAASGFTFSSFGMHWVRQAPGKGLEWVAVISDDGNNKFYADSVKGRFSISRDNSKNTLYLQMNSLRAEDTAVYYCVRAFRNSNWATGEYFDYWGQGTLVTVSS
VL: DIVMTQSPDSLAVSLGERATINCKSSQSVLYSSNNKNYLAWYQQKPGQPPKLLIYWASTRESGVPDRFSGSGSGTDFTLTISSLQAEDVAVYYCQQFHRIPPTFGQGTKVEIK
As to B3, the binding result in test [1] and in test [2] was “no binding (tested: 200 µg/mL)” in each case.

B4: COV57-04 (antibody, V domains shown)
VH: B3 VH with H3Q, S31N, K58E, D62G, A88P
VL: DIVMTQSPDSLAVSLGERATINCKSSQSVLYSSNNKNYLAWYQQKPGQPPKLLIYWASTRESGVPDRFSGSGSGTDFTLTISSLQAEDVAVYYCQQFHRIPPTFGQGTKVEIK
Consider B4, for which the binding result in test [1] and in test [2] was “no binding (tested: 200 µg/mL)” each time.

B5: COV77-39 (antibody, V domains shown)
VH: RVQLQESGPGLVKPSETLSLTCTVSGGSITDDYWNWIRQPPGKGLEWIGYVHDSGTTNYNPSLKSRVTLSLHTSGNKFSLRLTSVTAADTAMYYCARTTTTFPFDSWGQGTLVIVSS
VL: SYELTQPPSVSVSLGQMARITCSGEALPKKYVYWYQQKPGQFPVLVIYKDRERPSGIPERFSGSSSGTIVTLTISGVQAEDEADYYCLSVDSTANWVFGGGTKLTVL
B5: the binding result in test [1] and in test [2] was “no binding (tested: 200 µg/mL)” each time.

B6: COV44-79 (antibody, V domains shown)
VH: QVQLVESGGGVVQPGRSLRLSCAASGLTFSGYAMHWVRQAPGKGLEWVAVISRDARNKYYADSVKGRFTISRDNSKKTVYLEMNSLRVEDTAVYYCAILIIPGITEPGSPDALDIWGQGTMVSVSS
VL: DIQMTQSPSSMSASVGDRVTITCRASQDISKWLAWYQQRPGKAPKLLIYAASSLQSGVPSRFSGSGSGTDFTLTISSLQPEDFATYYCQQASSFPWSITFGQGTRLEIR
With B6, the binding result in test [1] is reported as “no binding (tested: 200 µg/mL)”.

B7: COV77-04 (antibody, V domains shown)
VH: QVRLQESGPGLVKPSETLSVTCTVSGVSISNYYWSWIRQPPGKGLEWIGYISDTGSTNYSPSLQSRVTISVDMSKNQVSLEVTSVTATDTAVYYCARTTTSVPFDYWGKGVLVTVSS
VL: SYELTQPPSVSVSPGQVARITCSGEALPKKYAYWYQHKPGQFPLLVIHKDSERPSGIPERFSGSSSGTVVTLTISGVQAEDEADYFCLSTDGSTTWVFGGGTKLTVL
Consider B7, for which the binding result in test [1] and in test [2] was “no binding (tested: 200 µg/mL)” in each case.

B8: COV78-36 (antibody, V domains shown)
VH: EVQLVQSGAEVKKPGESLRISCKGSGYSFSNSWITWVRQMPGKGLEWVGRIDTRDSRTAYSPSFEGHVFFSADRSSDTVYVQWRSLRASDTAVYYCTTGAGVVIAASYFWGQGTLVTVSS
VL: QSALTQPPSASGSPGQPVTISCTGTSSDVGGYEYVSWYQQLPGKVPTLIIHEVSKRPSGVPDRFSGSKSGNTASLTVSGLQAEDEADYYCSSYSADSSIIFGGGTKLTVL
As to B8, the binding result in test [1] and in test [2] was “no binding (tested: 200 µg/mL)” throughout.

B9: COV91-27 (antibody, V domains shown)
VH: QVQLVESGGGVVHPGGSLRLSCAASGFTFSDFAMNWVRQAPGEGLQWVAIISYDGRNKHFAASVRGRFTISRDNSKNTMFLQMSSLRAEDTAIYYCATLGGWFEEASPTYWGRGTLVTVSS
VL: EVVLTQSPAIVSLSPGERATLSCRASQSVGSRLAWHQQKPGLAPRVLIYDASNRATGIPARFSGSGSGTDFTLTISSIEPEDSAVYYCQQRGDWPLITFGQGTRLEIK
As to B9, the binding result in test [1] is reported as “no binding (tested: 200 µg/mL)”.

B10: COV44-25 (antibody, V domains shown)
VH: QVQLVDSGGGAVQPGTSLRLSCAASGFTFNTYAFHWVRQAPGKGLEWVAVISDDGNNKYYADSVKGRFTISRDDSKNTLSLQMDSLRVEDAAVYFCARGSYNSNWSLGEYFDYWGQGSLVTVSS
VL: DIVMTQSPDSLPVSLGERATINCKSSQSVLHSSNNKNYLAWYQQKPGQSPKLLISWASTRESGVPDRFSGSGSGTHFTLTISSLRAEDVAVYYCLQYFNNQYTFGQGTKLEIK
On to B10, for which the binding result in test [1] and in test [2] was “no binding (tested: 200 µg/mL)” each time.

Source of the values: patent publication US20250145690A1 (US Dept. of Health and Human Services, published 2025).
